These results are taken from PMC3916286, “NSUN4 Is a Dual Function Mitochondrial Protein Required for Both Methylation of 12S rRNA and Coordination of Mitoribosomal Assembly”.

The data set deals with NSUN4 (Homo sapiens, UniProt Q96CB9 26-384). The data set can be described thus: EMSA; NSUN4 without MTERF4; protein 0-2.56 uM; EMSA with 40 ng RNA and 0-2.56 uM protein, essentially as in cited ref 15; buffer, salt, pH and temperature not given. The conditions noted are these: protein: recombinant; single strand folded, closed by added GGG/CCC.
Sequence of NSUN4 (Q96CB9 26-384): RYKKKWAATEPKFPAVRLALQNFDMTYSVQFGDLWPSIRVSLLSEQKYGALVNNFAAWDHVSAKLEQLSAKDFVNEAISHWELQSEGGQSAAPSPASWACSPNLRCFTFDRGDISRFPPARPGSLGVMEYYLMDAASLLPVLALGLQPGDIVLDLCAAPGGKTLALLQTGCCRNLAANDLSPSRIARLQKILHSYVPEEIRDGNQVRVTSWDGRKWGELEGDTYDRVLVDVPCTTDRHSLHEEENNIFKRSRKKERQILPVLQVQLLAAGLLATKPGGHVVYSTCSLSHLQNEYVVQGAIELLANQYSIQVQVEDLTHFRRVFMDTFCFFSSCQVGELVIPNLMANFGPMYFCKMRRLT

B1: ds12S:878-949 (structured_RNA)
RNA: GGGGUUGAACAGGGCCCUGAAGCGCGUACACACCGCCCGUCACCCUCCUCAAGUAUACUUCAAAGGACAUUUAACCCC
For the molecule B1, the binding result was “binds”.
